Assay [1] deals with human αβ T cell receptor (αβ TCR) on T cells (human). Description: cell-based or functional assay.
In assay [2] the target is T1, CD14 on cells expressing CD14 (monocyte lineage/NK cells) (UniProt P08571 20-345, limits assumed).
T1 construct: whole, on cells
T1 sequence (looked up): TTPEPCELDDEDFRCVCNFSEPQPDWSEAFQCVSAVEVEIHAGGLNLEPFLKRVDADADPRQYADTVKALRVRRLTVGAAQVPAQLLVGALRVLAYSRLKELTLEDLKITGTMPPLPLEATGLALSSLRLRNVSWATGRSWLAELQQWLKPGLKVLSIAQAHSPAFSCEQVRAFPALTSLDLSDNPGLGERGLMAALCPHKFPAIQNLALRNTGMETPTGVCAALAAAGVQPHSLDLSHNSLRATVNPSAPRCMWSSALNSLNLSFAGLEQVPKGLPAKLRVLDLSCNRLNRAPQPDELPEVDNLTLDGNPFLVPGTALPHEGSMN
Kind of assay: flow cytometry on PBMC from 6 donors. (Flow cytometry measures light scatter and fluorescence of single cells or particles in a stream.)

B1: TOL101 murine anti-αβ TCR monoclonal IgM antibody produced by the hybridoma TOL101 MCB (ATCC PTA-13293) (antibody)
heavy: QVQLQQSGAELARPGASVKMSCKASGYTFTSYTMHWVKQRPGQGLEWIGYINPSSGYTNYNQKFKDKATLTADKSSSTAYMQLSSLTSEDSAVYYCARWRDAYYAMDYWGQGTSVTVSSESQSFPNVFPLVSCESPLSDKNLVAMGCLARDFLPSTISFTWNYQNNTEVIQGIRTFPTLRTGGKYLATSQVLLSPKSILEGSDEYLVCKIHYGGKNRDLHVPIPAVAEMNPNVNVFVPPRDGFSGPAPRKSKLICEATNFTPKPITVSWLKDGKLVESGFTTDPVTIENKGSTPQTYKVISTLTISEIDWLNLNVYTCRVDHRGLTFLKNVSSTCAASPSTDILTFTIPPSFADIFLSKSANLTCLVSNLATYETLNISWASQSGEPLETKIKIMESHPNGTFSAKGVASVCVEDWNNRKEFVCTVTHRDLPSPQKKFISKPNEVHKHPPAVYLLPPAREQLNLRESATVTCLVKGFSPADISVQWLQRGQLLPQEKYVTSAPMPEPGAPGFYFTHSILTVTEEEWNSGETYTCVVGHEALPHLVTERTVDKSTGKPTLYNVSLIMSDTGGTCY
light: QIVLTQSPAIMSASPGEKVTMTCSASSSVSYMHWYQQKSGTSPKRWIYDTSKLASGVPARFSGSGSGTSYSLTISSMEAEDAATYYCQQWSSNPFTFGSGTKLEIKRADAAPTVSIFPPSSEQLTSGGASVVCFLNNFYPKDINVKWKIDGSERQNGVLNSWTDQDSKDSTYSMSSTLTLTKDEYERHNSYTCEATHKTSTSPIVKSFNRNEC
chain: GDDEATILADNKCMCTRVTSRIIPSTEDPNEDIVERNIRIVVPLNNRENISDPTSPLRRNFVYHLSDVCKKCDPVEVELEDQVVTATQSNICNEDDGVPETCYMYDRNKCYTTMVPLRYHGETKMVQAALTPDSCYPD
notes: Murine IgM kappa (IgMκ); It was detected with anti-mouse IgM in flow cytometry; also called TOL101 antibody; TOL101 mAb
With B1, in assay [1], the calcium flux in CD4 T cells (Fluo-4) (% of CD4 T cells) stood at 15. Further, the binding result in assay [2] is “no binding”.

Source of the values: patent US20130273089A1 (TOLERA THERAPEUTICS, published 2013).
